From article PMC6517591

These substances were tested against Human FcRn (neonatal Fc-receptor), C-terminally biotinylated (human) (UniProt P55899) (assay: SPR; pH 6.0).

| Substance | Kd |
| --- | --- |
| GDob1 IgG2 (from UniProt P01859) | 39 nM |
| GDob1 IgG1 (from UniProt P01857) | 23.7 nM |
| GDob1 IgG2 + G236 (from UniProt P01859) | 41.8 nM |
| GDob1 IgG1ΔG236 (from UniProt P01857) | 25 nM |
